Data taken from the nanobody polyreactivity screen of Harvey et al. (2022).

Assay: yeast display, Sf9 membrane polyspecificity reagent, FACS + sequencing; frameworks hold sequencing errors
Outline: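 Polyreactivity labels are assigned by the sorting gate from which each nanobody was recovered. The gates were low and high (top ~1%), set on anti-HA fluorescence for expression and streptavidin fluorescence for reagent binding. Before sorting, galactose-induced (36–48 hours) yeast display cells were stained for 1 hour at 4 °C with 10% biotinylated, detergent-solubilized Sf9 membrane reagent.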

Row | Sequence | polyreactivity (PSR sort gate)
1 | QVQHVDSAGGIVQAGGILRLSCAASGPTFGKYAMGWYRQQHGKERELVATITRTARTNYADSVKGRFTSSRDNAKNTVYLQMNSRKPEDTAVYYCDAPWRYTFPPQVYGQSYGYWGQGTQVTVSS | high polyreactivity
2 | QVQLVESGGGLVQAGGSLSISCAASGLTFSYYAMGWYRQAPGKERELGAAIAGRTGRPYYADSVKGRFTISRDNAKNTVYLQMNSLKPEDTAVFYSAAGYTFSRYDDDYWGQGTQVTVSS | low polyreactivity
3 | QVQLVESGGGLVQAGGSLRLSCAASGRILRTYAMGWYRQAPGKERELVAAITRGGSTYYADSVKGRFTISRDNAKNTVYLQMNSLKPEDTAVYYCNKYKSPYITLSQYGYWGQGTQVTVSS | high polyreactivity
4 | QVQLVESGGGLVQAGGSLRLSCAASGSIVRRYAMGWYRQAPGKEREFVAAISKRGGGTYYADSVKGRFTISRDNAKNTVYLQMNSLKPEDTAVYYCAAPWRRIGYTTRGYTLYDYWGQGTQVTVSS | high polyreactivity
5 | QVQLVESGGGLVQAGGSLRLSCAASGSIFVKYAMGWYRQATGKERELVASITGRGGSTYYADSVKGRFTISRDNAKNTVYFQMNSLIPEDTAVYYCAARVASRHGWHNYWGQGTQVTVSS | high polyreactivity
6 | QVQLVESGGCLVQAGGSLRLSCAASRSTFSYNAMGWYRHAPRKERELVASSSTSGGSTYYADSVKGRFSISRDNAKNTVYLQINSLTPEDTAVYYCNAPTSDIYSDFDYWGQGTQVTVSS | low polyreactivity
7 | QVQLVESGGGLVQAGGSLRLSCAASGSTFPYYAMGWYRQAPGKERELVAAISRGDSTNYADSVKGRFTISRDNAKNTFYLQMNSLKTEDTAVYYCAARLQYRRTSVKYYYWGQGTQVTVSS | high polyreactivity
8 | QVQLVESGGGLFQAGGSLRLSCAASGSIYRKYAMGWYRQAPGKERELVATISWNGGRTHYADSVKGRFTISRDNAKNTVYLQMKSLKPEDTAVYYCAAHTRTSGHNYWGQGTQVTVSS | low polyreactivity
9 | QVQLVESGGGLVQAGGSLRLSCASSGRNFRGYAMGWYRQAPGKEREFVAAITKNGGSTYYADSVKGRFTISRDNAKNTVYLQMNSLKPEDTAVYYCAVRAWDPYTGKSDYWGQGTQVTVSS | low polyreactivity
10 | QVQLVESGGGLVQAGGSLRLSCAASAIILQRNDMGRYRQAPGKERELVANIRDGGITFADSVKGRFTISRDNAKNTVYLQMNSLKPEDTAVYYCARDDTSPGYGDQSSNAAYYYWGQGTQVTVSS | low polyreactivity
11 | QVQLVESGGGLVQAGGSLRLSCAASGFTFPLNAMGWYRQAPGKERELVAAITNGGTTYYADSVKGRFTISRDNAKNTVYLQMNSLKPEDTAVYYCNAQATPYEGRYDESEYDYWGQGTQVTVSS | low polyreactivity
12 | QVQLVESGGGLVQAGGSLRLSCAASGFTFKFYAMGWYRQAPGKERELVAAISARGGITYYADSVKGRFTISRDNAKNTVYLQMNSLKPEDTAVYYCAAGVFGHYAFVEFDYWGQGTQVTVSS | high polyreactivity
13 | PVQLVESGGGLVQAGGSLRLSCAASGFTFFYYAMGGYRQGPGKERELVAALNWSGGRTYYADSVKGRFTISRDNAKNTVYLQRNSLKPEDTAVYYCAVDRSWSTRYPAYPGGYWGQGTQVTVSS | high polyreactivity
14 | QVHLVESGGGLVQAGGSLRLSCAASGLTFRYYAMGWYRPAPGKERELVAAISWSGGSTYYADSVKGRFTISRDNAKNTVYLQMNSQKPEDTAVYDCNTVGRSSSLSVFLIGYGYWGQATQVTVSS | high polyreactivity
15 | QVQLVESGGGLVQAGGSLRLSCAASGSIFTRYAMGWYRQAPGKERELVATISFIGSSTYYADSVKGRFTISRDNAKNTVYLQMNSLKPEDTAVYSCAATGYARQYEYRYDYWGQGTQVTVSS | low polyreactivity
16 | QVQLVESGGGLDQAGGSLRLSCAASGRTLYRYAMGWYRQSPGKERELVAAIRSGGRTNYADSVKGRFTISRDNAKNTVYLQLNSLKPEDTAVYYCAARTLRYPSTYDYWGQGTQVTVSS | high polyreactivity
17 | QVQLVESGGRLVQAGGSLRLICAASGSIFGHYAMGWYRQAPRKEREFVAAIDWSGGSSYYADSVKGRFTISRDNAKNTVYLQMISLKPEDTAVYYCAARVRERYYWGQGTQVTVSS | high polyreactivity
